Data reported in PMC4432644, “Molecular mechanism for USP7-mediated DNMT1 stabilization by acetylation” (Nature Communications, 2015).

Columns and labels:
Conditions in all cases: both partners purified
[1] = molecular target: T1, DNMT1^4KR (recombinant, residues 600–1,600) (human, UniProt P26358 600-1600, K1111 to Arginine | K1113 to Arginine | K1115 to Arginine | K1117 to Arginine); assay: pull-down; GST–USP7 proteins incubated with DNMT1 proteins 2 h at 4 °C in 25 mM HEPES pH 7.4, 150 mM NaCl, 5% glycerol, 0.05% Triton X-100, 1 mM DTT, then held on glutathione resin; SDS–PAGE, Coomassie
T1 construct: human DNMT1, residues 600-1,600 (DNMT1 if not specified); source: E. coli Rosetta (DE3), purified

[2] = molecular target: T2, DNMT1^2KQ (recombinant, residues 600–1,600) (human, UniProt P26358 600-1600, K1111 to Glutamine | K1113 to Glutamine); assay: as above
T2 construct: human DNMT1, residues 600-1,600 (DNMT1 if not specified); source: E. coli Rosetta (DE3), purified

[3] = molecular target: T3, DNMT1^2KR (recombinant, residues 600–1,600) (human, UniProt P26358 600-1600, K1111 to Arginine | K1113 to Arginine); assay: as above
T3 construct: human DNMT1, residues 600-1,600 (DNMT1 if not specified); source: E. coli Rosetta (DE3), purified

[4] = molecular target: T4, DNMT1 (residues 600–1,600) (human, UniProt P26358 600-1600); assay: as above
T4 construct: human DNMT1, residues 600-1,600; Modified pET-28a plasmid; also called WT DNMT1 (residues 600–1,600); source: E. coli Rosetta (DE3), purified (Ni-NTA, on-column cleavage, anion exchange, SEC)

[5] = molecular target: T4, DNMT1 (residues 600–1,600); assay: ITC; 0.05 mM DNMT1 (600–1,600) titrated with 0.5 mM USP7 (560–1,102); iTC200; 18 °C; 10 mM HEPES pH 8.0, 300 mM NaCl

T4 sequence (P26358 600-1600): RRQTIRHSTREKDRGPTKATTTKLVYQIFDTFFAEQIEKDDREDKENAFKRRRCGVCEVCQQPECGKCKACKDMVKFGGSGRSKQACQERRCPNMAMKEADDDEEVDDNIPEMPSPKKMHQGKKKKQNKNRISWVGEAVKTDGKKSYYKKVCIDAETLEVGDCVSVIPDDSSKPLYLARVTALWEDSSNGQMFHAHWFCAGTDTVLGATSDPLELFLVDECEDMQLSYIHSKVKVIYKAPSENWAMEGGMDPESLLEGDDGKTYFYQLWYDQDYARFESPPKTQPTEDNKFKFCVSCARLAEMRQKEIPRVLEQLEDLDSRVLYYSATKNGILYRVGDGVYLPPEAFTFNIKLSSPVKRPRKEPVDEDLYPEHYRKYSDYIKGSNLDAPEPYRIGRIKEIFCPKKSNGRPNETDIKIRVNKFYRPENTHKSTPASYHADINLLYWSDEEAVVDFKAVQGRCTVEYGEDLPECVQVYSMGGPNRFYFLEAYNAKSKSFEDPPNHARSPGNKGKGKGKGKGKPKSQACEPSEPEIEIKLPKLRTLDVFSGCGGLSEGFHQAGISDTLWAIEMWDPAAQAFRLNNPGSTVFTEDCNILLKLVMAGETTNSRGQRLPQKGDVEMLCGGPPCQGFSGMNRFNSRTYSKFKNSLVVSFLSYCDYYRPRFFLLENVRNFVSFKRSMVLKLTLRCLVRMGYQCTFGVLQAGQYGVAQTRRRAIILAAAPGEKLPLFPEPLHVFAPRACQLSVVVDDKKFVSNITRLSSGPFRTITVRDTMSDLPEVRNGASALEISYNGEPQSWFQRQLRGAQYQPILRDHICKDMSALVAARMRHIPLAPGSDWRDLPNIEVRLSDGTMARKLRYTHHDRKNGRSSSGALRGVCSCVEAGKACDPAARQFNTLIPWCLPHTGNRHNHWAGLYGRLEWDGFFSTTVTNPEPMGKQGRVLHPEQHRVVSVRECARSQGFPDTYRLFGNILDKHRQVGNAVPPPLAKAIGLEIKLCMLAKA
T2 sequence (P26358 other isoform, or with tags, fused parts or gaps with the stated changes): as the sequence (P26358 600-1600) above, with K512Q, K514Q counted along it
T1 sequence (P26358 other isoform, or with tags, fused parts or gaps with the stated changes): as the sequence (P26358 600-1600) above, with K512R, K514R, K516R, K518R counted along it
T3 sequence (P26358 other isoform, or with tags, fused parts or gaps with the stated changes): as the sequence (P26358 600-1600) above, with K512R, K514R counted along it

B1: GST–TUD^USP7 (tandem UBL domains of USP7, residues 560–1,102) (domain or fragment, human, UniProt Q93009 560-1102, looked up)
chain: EAHLYMQVQIVAEDQFCGHQGNDMYDEEKVKYTVFKVLKNSSLAEFVQSLSQTMGFPQDQIRLWPMQARSNGTKRPAMLDNEADGNKTMIELSDNENPWTIFLETVDPELAASGATLPKFDKDHDVMLFLKMYDPKTRSLNYCGHIYTPISCKIRDLLPVMCDRAGFIQDTSLILYEEVKPNLTERIQDYDVSLDKALDELMDGDIIVFQKDDPENDNSELPTAKEYFRDLYHRVDVIFCDKTIPNDPGFVVTLSNRMNYFQVAKTVAQRLNTDPMLLQFFKSQGYRDGPGNPLRHNYEGTLRDLLQFFKPRQPKKLYYQQLKMKITDFENRRSFKCIWLNSQFREEEITLYPDKHGCVRDLLEECKKAVELGEKASGKLRLLEIVSYKIIGVHQEDELLECLSPATSRTFRIEEIPLDQVDIDKENEMLVTVAHFHKEVFGTFGIPFLLRIHQGEHFREVMKRIQSLLDIQEKEFEKFKFAIVMMGRHQYINEDEYEVNLKDFEPQPGNMSHPRPWLGLDHFNKAPKRSRYTYLEKAIKIHN
notes: Modified pGEX-6P-1 plasmid; also called GST–USP7 (truncation); wild-type GST–TUD^USP7; source: E. coli BL21(DE3), purified
- binding result [1]: binds
- binding result [2]: binds
- binding result [3]: binds

B2: GST–TUD^USP7 D762A (domain or fragment, human, UniProt Q93009 560-1102, looked up)
chain: EAHLYMQVQIVAEDQFCGHQGNDMYDEEKVKYTVFKVLKNSSLAEFVQSLSQTMGFPQDQIRLWPMQARSNGTKRPAMLDNEADGNKTMIELSDNENPWTIFLETVDPELAASGATLPKFDKDHDVMLFLKMYDPKTRSLNYCGHIYTPISCKIRDLLPVMCDRAGFIQDTSLILYEEVKPNLTERIQDYDVSLDKALDELMAGDIIVFQKDDPENDNSELPTAKEYFRDLYHRVDVIFCDKTIPNDPGFVVTLSNRMNYFQVAKTVAQRLNTDPMLLQFFKSQGYRDGPGNPLRHNYEGTLRDLLQFFKPRQPKKLYYQQLKMKITDFENRRSFKCIWLNSQFREEEITLYPDKHGCVRDLLEECKKAVELGEKASGKLRLLEIVSYKIIGVHQEDELLECLSPATSRTFRIEEIPLDQVDIDKENEMLVTVAHFHKEVFGTFGIPFLLRIHQGEHFREVMKRIQSLLDIQEKEFEKFKFAIVMMGRHQYINEDEYEVNLKDFEPQPGNMSHPRPWLGLDHFNKAPKRSRYTYLEKAIKIHN
notes: also called D762A^USP7; source: E. coli BL21(DE3), purified
- binding result [4]: binds

B3: GST–TUD^USP7 E744A (domain or fragment, human, UniProt Q93009 560-1102, looked up)
chain: EAHLYMQVQIVAEDQFCGHQGNDMYDEEKVKYTVFKVLKNSSLAEFVQSLSQTMGFPQDQIRLWPMQARSNGTKRPAMLDNEADGNKTMIELSDNENPWTIFLETVDPELAASGATLPKFDKDHDVMLFLKMYDPKTRSLNYCGHIYTPISCKIRDLLPVMCDRAGFIQDTSLILYEEVKPNLTARIQDYDVSLDKALDELMDGDIIVFQKDDPENDNSELPTAKEYFRDLYHRVDVIFCDKTIPNDPGFVVTLSNRMNYFQVAKTVAQRLNTDPMLLQFFKSQGYRDGPGNPLRHNYEGTLRDLLQFFKPRQPKKLYYQQLKMKITDFENRRSFKCIWLNSQFREEEITLYPDKHGCVRDLLEECKKAVELGEKASGKLRLLEIVSYKIIGVHQEDELLECLSPATSRTFRIEEIPLDQVDIDKENEMLVTVAHFHKEVFGTFGIPFLLRIHQGEHFREVMKRIQSLLDIQEKEFEKFKFAIVMMGRHQYINEDEYEVNLKDFEPQPGNMSHPRPWLGLDHFNKAPKRSRYTYLEKAIKIHN
notes: also called E744A^USP7; source: E. coli BL21(DE3), purified
- binding result [4]: binds

B4: USP7 (residues 560–1,102), tag removed (domain or fragment, human, UniProt Q93009 560-1102, looked up)
chain: EAHLYMQVQIVAEDQFCGHQGNDMYDEEKVKYTVFKVLKNSSLAEFVQSLSQTMGFPQDQIRLWPMQARSNGTKRPAMLDNEADGNKTMIELSDNENPWTIFLETVDPELAASGATLPKFDKDHDVMLFLKMYDPKTRSLNYCGHIYTPISCKIRDLLPVMCDRAGFIQDTSLILYEEVKPNLTERIQDYDVSLDKALDELMDGDIIVFQKDDPENDNSELPTAKEYFRDLYHRVDVIFCDKTIPNDPGFVVTLSNRMNYFQVAKTVAQRLNTDPMLLQFFKSQGYRDGPGNPLRHNYEGTLRDLLQFFKPRQPKKLYYQQLKMKITDFENRRSFKCIWLNSQFREEEITLYPDKHGCVRDLLEECKKAVELGEKASGKLRLLEIVSYKIIGVHQEDELLECLSPATSRTFRIEEIPLDQVDIDKENEMLVTVAHFHKEVFGTFGIPFLLRIHQGEHFREVMKRIQSLLDIQEKEFEKFKFAIVMMGRHQYINEDEYEVNLKDFEPQPGNMSHPRPWLGLDHFNKAPKRSRYTYLEKAIKIHN
notes: The methods name a modified pGEX-6P-1 plasmid but a Ni-NTA purification with on-column cleavage; also called TUD^USP7; source: E. coli BL21(DE3), purified (Ni-NTA, on-column cleavage, anion exchange, SEC)
- Kd [5]: 600 nM
